# From patent US20070197457A1
# What was measured:
# [1] = biological target: GAL4 DNA binding domain fused in-frame to full-length SMAD1 (UniProt P04386); experiment: cell-based or functional assay
# [2] = biological target: SMAD1 (wild-type, full-length R-SMAD); experiment: cell-based or functional assay
"GAL4/UAS-luciferase reporter, SMAD trans-activation activity at higher amounts of TAK1dn [1] [%]","GAL4/UAS-luciferase reporter, SMAD trans-activation, increase at low concentrations of TAK1dn [1] [%]","GAL4/UAS-luciferase reporter, caALK6-receptor-mediated trans-activation of SMAD1, maximum inhibition [1]","SMAD1-SBE CAT reporter (SMAD1-mediated transcription), maximum reduction [2] [%]",Substance
70,35,–,–,dominant-negative TAK1 (TAK1dn) mutant (K63W) (from UniProt Q62073 1-579) (enzyme)
–,–,40,10,constitutively active TAK1 (TAK1ca) lacking the 22 N-terminal amino acids (from UniProt Q62073 23-579) (enzyme)
